These results are taken from paper PMC6597003 (ACS chemical biology, 2018).

Ends that are not written are not given here.

The target of one test is ephrin type-A receptor 2 ligand-binding domain (UniProt P29317 23-202). The test is described as follows: DELFIA displacement assay.
Chain of ephrin type-A receptor 2 ligand-binding domain (P29317 23-202): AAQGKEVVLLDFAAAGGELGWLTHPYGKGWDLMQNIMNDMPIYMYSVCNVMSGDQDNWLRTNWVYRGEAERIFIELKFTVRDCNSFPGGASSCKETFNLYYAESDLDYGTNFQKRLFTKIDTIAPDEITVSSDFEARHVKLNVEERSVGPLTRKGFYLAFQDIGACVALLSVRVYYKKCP
Settings: not given
The IC50 is the concentration that inhibits the measured activity by half. Low readings indicate inhibition by little substance, high ones a need for much substance. With YSAYPLSVEMMS-NH2 [135B2], the IC50 was over 200 µM. On the same count and under the same terms, the figure for YSLYPDSVPFRP-NH2 [135D8] is over 200 µM; for YSVYPDSVPFRP-NH2 [135D7] it is over 200 µM; for FTAFPLGFEMMS-NH2 [135B9] it is over 100 µM.

As for YDYVAVAGPAEY-NH2 [135A1 (1C1)], the half-maximal inhibitory concentration (IC50) is over 500 µM. The same measure, in the same setting: with FTAFPLGFEFRP-NH2 [135B8] the figure was over 100 µM. Take YSCYPDSVPFRP-NH2 [135D6]: the concentration for half-maximal inhibition (IC50) was over 100 µM. Same read-out and setting: the figure for YSAYPLSVEFRP-NH2 [135A7] is over 100 µM; for YSAYPDSVEMMS-NH2 [135B1] it is over 100 µM.

For the next test, the system named is EphA2.
Test: not given
Conditions: recently reported by the authors; cited from earlier work.
Turning to `CSCC[C@H](NC(=O)[C@H](CCSC)NC(=O)[C@@H]1CCCN1C(=O)[C@@H](NC(=O)[C@H](CO)NC(=O)[C@H](CC(=O)O)NC(=O)[C@@H]1CCCN1C(=O)[C@H](Cc1ccc(O)cc1)NC(=O)[C@H](C)NC(=O)[C@H](CO)NC(=O)[C@@H](N)Cc1ccc(O)cc1)C(C)C)C(=O)N[C@@H](CO)C(N)=O` [YSA], the “concentration required in cell-based assays to activate the receptor” value is “tripledigit micromolar concentration”.
